# According to paper PMC5802752 (Nature Communications, 2018):
# Molecular target: T1, factor H-binding protein (fHbp) variant 1.1, recombinant (Neisseria meningitidis serogroup B MC58 …, UniProt Q9JXV4)
# T1 construct: not shown: His6, C-terminal, kept
# Assay: crystal structure
# Conditions: both partners purified
binder,measurement,value
"human Fab 1A12 (Fab, V domains shown) VH: EVQLVQSGAELKKPGESLKISCKASGYTFTNYWVVWVRQMPGEGLEWMGSIHPRDSDARYSLSFEGRVTFSVDKSTTTAYLQWSSLKVSDSAIYYCARLSQVSGWSPWVGPWGQGTLVTVSS VL: DIVMTQSPSSLSASVGDRVTITCRASQSISVSLNWYQQKPGKAPKVLIYAASRLQSGIPSRFSGSGSGSHFTLTISSLQPEDFATYYCQETYSDLMYTFGQGTKVEIK",binding result,binds
